How the values were obtained:
[1] = target: Ra12 protein (Mycobacterium tuberculosis); assay: ELISA, Ra12 on plate, serum 1:1024000, average of 2 wells
[2] = target: Ra12 protein (Mycobacterium tuberculosis); assay: ELISA, Ra12 on plate, serum 1:128000, well 2
[3] = target: Ra12 protein (Mycobacterium tuberculosis); assay: ELISA, Ra12 on plate, serum 1:1000, well 1
[4] = target: Ra12 protein (Mycobacterium tuberculosis); assay: ELISA, Ra12 on plate, serum 1:2000, average of 2 wells
[5] = target: Ra12 protein (Mycobacterium tuberculosis); assay: ELISA, Ra12 on plate, serum 1:64000, well 1
[6] = target: Ra12 protein (Mycobacterium tuberculosis); assay: ELISA, Ra12 on plate, serum 1:16000, well 1
[7] = target: Ra12 protein (Mycobacterium tuberculosis); assay: ELISA, Ra12 on plate, serum 1:8000, average of 2 wells
[8] = target: Ra12 protein (Mycobacterium tuberculosis); assay: ELISA, Ra12 on plate, serum 1:256000, well 2
[9] = target: Ra12 protein (Mycobacterium tuberculosis); assay: ELISA, Ra12 on plate, serum 1:512000, average of 2 wells
[10] = target: Ra12 protein (Mycobacterium tuberculosis); assay: ELISA, Ra12 on plate, serum 1:32000, well 1
[11] = target: Ra12 protein (Mycobacterium tuberculosis); assay: ELISA, Ra12 on plate, serum 1:256000, well 1
[12] = target: Ra12 protein (Mycobacterium tuberculosis); assay: ELISA, Ra12 on plate, serum 1:128000, well 1
[13] = target: Ra12 protein (Mycobacterium tuberculosis); assay: ELISA, Ra12 on plate, serum 1:1000, well 2
[14] = target: Ra12 protein (Mycobacterium tuberculosis); assay: ELISA, Ra12 on plate, serum 1:1024000, well 2
[15] = target: Ra12 protein (Mycobacterium tuberculosis); assay: ELISA, Ra12 on plate, serum 1:256000, average of 2 wells
[16] = target: Ra12 protein (Mycobacterium tuberculosis); assay: ELISA, Ra12 on plate, serum 1:64000, well 2
[17] = target: Ra12 protein (Mycobacterium tuberculosis); assay: ELISA, Ra12 on plate, serum 1:1024000, well 1
[18] = target: Ra12 protein (Mycobacterium tuberculosis); assay: ELISA, Ra12 on plate, serum 1:8000, well 1
[19] = target: Ra12 protein (Mycobacterium tuberculosis); assay: ELISA, Ra12 on plate, serum 1:16000, average of 2 wells
[20] = target: Ra12 protein (Mycobacterium tuberculosis); assay: ELISA, Ra12 on plate, serum 1:32000, well 2
[21] = target: Ra12 protein (Mycobacterium tuberculosis); assay: ELISA, Ra12 on plate, serum 1:64000, average of 2 wells
[22] = target: Ra12 protein (Mycobacterium tuberculosis); assay: ELISA, Ra12 on plate, serum 1:16000, well 2
[23] = target: Ra12 protein (Mycobacterium tuberculosis); assay: ELISA, Ra12 on plate, serum 1:2000, well 1
[24] = target: Ra12 protein (Mycobacterium tuberculosis); assay: ELISA, Ra12 on plate, serum 1:4000, average of 2 wells
[25] = target: Ra12 protein (Mycobacterium tuberculosis); assay: ELISA, Ra12 on plate, serum 1:512000, well 1
[26] = target: Ra12 protein (Mycobacterium tuberculosis); assay: ELISA, Ra12 on plate, serum 1:512000, well 2
[27] = target: Ra12 protein (Mycobacterium tuberculosis); assay: ELISA, Ra12 on plate, serum 1:32000, average of 2 wells
[28] = target: Ra12 protein (Mycobacterium tuberculosis); assay: ELISA, Ra12 on plate, serum 1:8000, well 2
[29] = target: Ra12 protein (Mycobacterium tuberculosis); assay: ELISA, Ra12 on plate, serum 1:4000, well 1
[30] = target: Ra12 protein (Mycobacterium tuberculosis); assay: ELISA, Ra12 on plate, serum 1:128000, average of 2 wells
[31] = target: Ra12 protein (Mycobacterium tuberculosis); assay: ELISA, Ra12 on plate, serum 1:4000, well 2
[32] = target: Ra12 protein (Mycobacterium tuberculosis); assay: ELISA, Ra12 on plate, serum 1:2000, well 2
[33] = target: Ra12 protein (Mycobacterium tuberculosis); assay: ELISA, Ra12 on plate, serum 1:1000, average of 2 wells

Preimmune sera (antibody)
ELISA absorbance at 450 nm [1]: 0.16 OD450 | ELISA absorbance at 450 nm [2]: 0.14 OD450 | ELISA absorbance at 450 nm [3]: 0.18 OD450 | ELISA absorbance at 450 nm [4]: 0.16 OD450 | ELISA absorbance at 450 nm [5]: 0.14 OD450 | ELISA absorbance at 450 nm [6]: 0.15 OD450 | ELISA absorbance at 450 nm [7]: 0.15 OD450 | ELISA absorbance at 450 nm [8]: 0.15 OD450 | ELISA absorbance at 450 nm [9]: 0.16 OD450 | ELISA absorbance at 450 nm [10]: 0.14 OD450 | ELISA absorbance at 450 nm [11]: 0.15 OD450 | ELISA absorbance at 450 nm [12]: 0.15 OD450 | ELISA absorbance at 450 nm [13]: 0.18 OD450 | ELISA absorbance at 450 nm [14]: 0.16 OD450 | ELISA absorbance at 450 nm [15]: 0.15 OD450 | ELISA absorbance at 450 nm [16]: 0.13 OD450 | ELISA absorbance at 450 nm [17]: 0.16 OD450 | ELISA absorbance at 450 nm [18]: 0.15 OD450 | ELISA absorbance at 450 nm [19]: 0.15 OD450 | ELISA absorbance at 450 nm [20]: 0.13 OD450 | ELISA absorbance at 450 nm [21]: 0.13 OD450 | ELISA absorbance at 450 nm [22]: 0.14 OD450 | ELISA absorbance at 450 nm [23]: 0.15 OD450 | ELISA absorbance at 450 nm [24]: 0.15 OD450 | ELISA absorbance at 450 nm [25]: 0.16 OD450 | ELISA absorbance at 450 nm [26]: 0.16 OD450 | ELISA absorbance at 450 nm [27]: 0.14 OD450 | ELISA absorbance at 450 nm [28]: 0.15 OD450 | ELISA absorbance at 450 nm [29]: 0.15 OD450 | ELISA absorbance at 450 nm [30]: 0.14 OD450 | ELISA absorbance at 450 nm [31]: 0.15 OD450 | ELISA absorbance at 450 nm [32]: 0.17 OD450 | ELISA absorbance at 450 nm [33]: 0.18 OD450

From patent US20050260177A1
